Data on 15 molecules can be found in US20150119341A1 (PALATIN TECHNOLOGIES, published 2015).

For assay [1], the target named is T1, recombinant human melanocortin-1 receptor (hMCR-1a) in membrane homogenates of HEK-293 cells (human, UniProt Q01726 1-317).
T1 construct: whole, on cells; Used as membrane homogenates, not intact cells; also called hMCR-la; MC-1
In words: competitive inhibition of [I125]-NDP-alpha-MSH, hMCR-1 HEK-293 membranes. On the procedure:
(§1) A competitive inhibition binding assay was performed using membrane homogenates prepared from HEK-293 cells that express recombinant hMCR-la or hMCR-4 (in each instance where the h prefix refers to human), or alternatively membrane homogenates from B16-F10 mouse melanoma cells containing endogenous murine MCR-1. In the examples that follow, all MCR-1 and MCR-4 values are for human recombinant receptors, unless otherwise noted. Assays were performed in 96 well polypropylene round-bottom plates (VWR catalog number 12777-030).
(§2) Membrane homogenates were incubated with 0.1 nM [I¹²⁵]-NDP-α-MSH (Perkin Elmer) and increasing concentrations of test peptides of the present invention in buffer containing 25 mM HEPES buffer (pH 7.5) with 100 mM NaCl, 2 mM CaCl₂, 2 mM MgCl₂, 0.3 mM 1,10-phenanthroline, and 0.2% bovine serum albumin. After incubation for 90 minutes at 37° C., the assay mixture was filtered onto GF/B Unifilter plates (Perkin-Elmer catalog number 6005177) and washed with 3 mL of ice-cold buffer per well. Filters were air dried and 35 μL of scintillation cocktail added to each well. Plates were counted in a Microbeta counter for bound radioactivity. […] Maximal specific binding (100%) was defined as the difference in radioactivity (cpm) bound to cell membranes in the absence and presence of 1 μM NDP-α-MSH. Each assay was conducted in duplicate and the actual mean values are described, with results less than 0% reported as 0%. Ki values for peptides of the present invention were determined using Graph-Pad PRISM® curve-fitting software.

Assay [2] addresses T2, recombinant human melanocortin-4 receptor (hMCR-4) in membrane homogenates of HEK-293 cells (human, UniProt P32245 1-332).
T2 construct: whole, on cells; Used as membrane homogenates, not intact cells; also called MC-4
In words: competitive inhibition of [I125]-NDP-alpha-MSH, hMCR-4 HEK-293 membranes. On the procedure:
as §1, §2

In assay [3] the target is T3, human melanocortin-1 receptor (hMCR-1) expressed by the human melanoma cell line HBL (human, UniProt Q01726 1-317). The assay is described as follows: cell-based or functional assay.
T3 sequence (Q01726 whole entry): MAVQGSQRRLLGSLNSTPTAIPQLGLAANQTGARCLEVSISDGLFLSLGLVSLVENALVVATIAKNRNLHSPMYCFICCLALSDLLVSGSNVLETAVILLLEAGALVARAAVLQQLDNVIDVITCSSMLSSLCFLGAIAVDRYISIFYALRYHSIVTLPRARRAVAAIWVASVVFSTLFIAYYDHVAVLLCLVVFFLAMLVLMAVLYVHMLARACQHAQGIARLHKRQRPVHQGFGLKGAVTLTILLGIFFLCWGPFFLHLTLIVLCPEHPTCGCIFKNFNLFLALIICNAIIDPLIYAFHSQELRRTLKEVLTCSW
The target of assay [4] is T3, human melanocortin-1 receptor (hMCR-1) …. In words: cell-based or functional assay. This is another data set of the same source.
Assay [5] shares this target. The assay is described as follows: cell-based or functional assay. The source holds these as a separate data set.
Assay [6] has the same target. In words: cell-based or functional assay. This is another data set of the same source.
For assay [7] the target is unchanged. In words: cell-based or functional assay. This is another data set of the same source.
The target is the same in assay [8]. In words: cell-based or functional assay. This is another data set of the same source.
Assay [9] has the same target. The assay is described as follows: cell-based or functional assay. This is another data set of the same source.
For assay [10] the target is unchanged. In words: cell-based or functional assay. The source holds these as a separate data set.
For assay [11] the target is unchanged. The assay is described as follows: cell-based or functional assay. This is another data set of the same source.
Assay [12] shares this target. The assay is described as follows: cell-based or functional assay. This is another data set of the same source.
Assay [13] has the same target. The assay is described as follows: cell-based or functional assay. This is another data set of the same source.
Assay [14] shares this target. In words: cell-based or functional assay. The source holds these as a separate data set.
The target is the same in assay [15]. In words: cell-based or functional assay. The source holds these as a separate data set.

The Ki is the dissociation constant of the complex between target and ligand, obtained from inhibition or displacement.

Read-outs that look alike come from different tables or passages of the source. [ ]: non-standard residue; d: D form. Nle = CCCC[C@H](N)C(=O)O

T2 sequence (P32245 whole entry): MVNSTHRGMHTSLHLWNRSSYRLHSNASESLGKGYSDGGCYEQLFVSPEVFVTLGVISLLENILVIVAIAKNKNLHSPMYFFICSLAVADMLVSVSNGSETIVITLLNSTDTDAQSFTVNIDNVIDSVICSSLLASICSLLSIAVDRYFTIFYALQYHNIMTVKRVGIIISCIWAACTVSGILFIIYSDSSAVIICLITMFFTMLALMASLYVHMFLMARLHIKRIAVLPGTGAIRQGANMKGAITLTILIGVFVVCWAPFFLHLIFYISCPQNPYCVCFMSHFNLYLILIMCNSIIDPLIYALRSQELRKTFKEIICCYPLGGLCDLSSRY
T1 sequence (Q01726 whole entry): as the sequence (Q01726 whole entry) above

B1: Ac-Nle-His-Phe-Arg-Ala-Trp-NH2 (peptide)
peptide: Ac-[Nle]HFRAW-NH2
SMILES: CCCC[C@H](NC(C)=O)C(=O)N[C@@H](Cc1c[nH]cn1)C(=O)N[C@@H](Cc1ccccc1)C(=O)N[C@@H](CCCNC(=N)N)C(=O)N[C@@H](C)C(=O)N[C@@H](Cc1c[nH]c2ccccc12)C(N)=O
notes: synthetic linear peptide
For the molecule B1, the results for the Ki in assay [1] and in [2] were 5920 nM and 10 µM, respectively.

B2: Ac-Nle-Ala-His-D-Phe-Arg-Ala-D-Trp-NH2 (peptide)
peptide: Ac-[Nle]AH[dF]RA[dW]-NH2
SMILES: CCCC[C@H](NC(C)=O)C(=O)N[C@@H](C)C(=O)N[C@@H](Cc1c[nH]cn1)C(=O)N[C@H](Cc1ccccc1)C(=O)N[C@@H](CCCNC(=N)N)C(=O)N[C@@H](C)C(=O)N[C@H](Cc1c[nH]c2ccccc12)C(N)=O
Consider B2, for which, in [3], the “MC-1 EC50 (average; cAMP HBL)” value is 0.6 nM.

B3: Ac-Nle-D-Phe-Arg-Ala-Trp-NH2 (peptide)
peptide: Ac-[Nle][dF]RAW-NH2
SMILES: CCCC[C@H](NC(C)=O)C(=O)N[C@H](Cc1ccccc1)C(=O)N[C@@H](CCCNC(=N)N)C(=O)N[C@@H](C)C(=O)N[C@@H](Cc1c[nH]c2ccccc12)C(N)=O
With B3, the “MC-1 EC50 (average; cAMP HBL)” value in assay [4] worked out at 402 nM.

B4: Ac-Nle-Ala-His-D-Phe-Arg-D-Pro-Trp-NH2 (peptide)
peptide: Ac-[Nle]AH[dF]R[dP]W-NH2
SMILES: CCCC[C@H](NC(C)=O)C(=O)N[C@@H](C)C(=O)N[C@@H](Cc1c[nH]cn1)C(=O)N[C@H](Cc1ccccc1)C(=O)N[C@@H](CCCNC(=N)N)C(=O)N1CCC[C@@H]1C(=O)N[C@@H](Cc1c[nH]c2ccccc12)C(N)=O
Regarding B4, the “MC-1 EC50 (average; cAMP HBL)” value in assay [5] is 1 nM.

B5: Ac-Nle-Ala-His-Phe-Arg-Ala-Trp-NH2 (peptide)
peptide: Ac-[Nle]AHFRAW-NH2
SMILES: CCCC[C@H](NC(C)=O)C(=O)N[C@@H](C)C(=O)N[C@@H](Cc1c[nH]cn1)C(=O)N[C@@H](Cc1ccccc1)C(=O)N[C@@H](CCCNC(=N)N)C(=O)N[C@@H](C)C(=O)N[C@@H](Cc1c[nH]c2ccccc12)C(N)=O
notes: synthetic linear peptide
For B5, the “MC-1 EC50 (average; cAMP HBL)” value in assay [6] was 4 nM. Further, the Ki in assay [1] came to 85 nM; in assay [2], 10 µM.

B6: Ac-Nle-Ala-His-Phe-Arg-Gly-Trp-NH2 (peptide)
peptide: Ac-[Nle]AHFRGW-NH2
SMILES: CCCC[C@H](NC(C)=O)C(=O)N[C@@H](C)C(=O)N[C@@H](Cc1c[nH]cn1)C(=O)N[C@@H](Cc1ccccc1)C(=O)N[C@@H](CCCNC(=N)N)C(=O)NCC(=O)N[C@@H](Cc1c[nH]c2ccccc12)C(N)=O
notes: synthetic linear peptide
On to B6, for which the “MC-1 EC50 (average; cAMP HBL)” value in assay [7] was 21 nM. Moreover, the Ki in assay [1] worked out at 340 nM; in assay [2], 10 µM.

B7: Ac-Nle-Ala-His-D-Phe-Arg-Pro-D-Trp-NH2 (peptide)
peptide: Ac-[Nle]AH[dF]RP[dW]-NH2
SMILES: CCCC[C@H](NC(C)=O)C(=O)N[C@@H](C)C(=O)N[C@@H](Cc1c[nH]cn1)C(=O)N[C@H](Cc1ccccc1)C(=O)N[C@@H](CCCNC(=N)N)C(=O)N1CCC[C@H]1C(=O)N[C@H](Cc1c[nH]c2ccccc12)C(N)=O
In the case of B7, in assay [8], the “MC-1 EC50 (average; cAMP HBL)” value was determined as 0.17 nM.

B8: Ac-Nle-Ala-His-D-Phe-Arg-Ala-Trp-NH2 (peptide)
peptide: Ac-[Nle]AH[dF]RAW-NH2
SMILES: CCCC[C@H](NC(C)=O)C(=O)N[C@@H](C)C(=O)N[C@@H](Cc1c[nH]cn1)C(=O)N[C@H](Cc1ccccc1)C(=O)N[C@@H](CCCNC(=N)N)C(=O)N[C@@H](C)C(=O)N[C@@H](Cc1c[nH]c2ccccc12)C(N)=O
notes: synthetic linear peptide
For B8, in assay [9], the “MC-1 EC50 (average; cAMP HBL)” value came to 0.02 nM. For the same molecule, the figures for the Ki in assay [1] and in assay [2] were 0.2 nM and 1.74 µM, respectively.

B9: Ac-Nle-Ala-His-D-Phe-Arg-Pro-Trp-NH2 (peptide)
peptide: Ac-[Nle]AH[dF]RPW-NH2
SMILES: CCCC[C@H](NC(C)=O)C(=O)N[C@@H](C)C(=O)N[C@@H](Cc1c[nH]cn1)C(=O)N[C@H](Cc1ccccc1)C(=O)N[C@@H](CCCNC(=N)N)C(=O)N1CCC[C@H]1C(=O)N[C@@H](Cc1c[nH]c2ccccc12)C(N)=O
notes: synthetic linear peptide
With B9, the “MC-1 EC50 (average; cAMP HBL)” value in [10] stood at 9 nM. In addition, the Ki in assay [1] amounted to 185 nM; in [2], 0.02 µM.

B10: Ac-Nle-Ala-Ala-D-Phe-Arg-Ala-Trp-NH2 (peptide)
peptide: Ac-[Nle]AA[dF]RAW-NH2
SMILES: CCCC[C@H](NC(C)=O)C(=O)N[C@@H](C)C(=O)N[C@@H](C)C(=O)N[C@H](Cc1ccccc1)C(=O)N[C@@H](CCCNC(=N)N)C(=O)N[C@@H](C)C(=O)N[C@@H](Cc1c[nH]c2ccccc12)C(N)=O
notes: synthetic linear peptide
As to B10, the “MC-1 EC50 (average; cAMP HBL)” value in assay [11] was found to be 8 nM. The inhibition constant Ki came to 195 nM in [1] and 10 µM in assay [2].

B11: Ac-Nle-Ala-His-D-Phe-Ala-Ala-Trp-NH2 (peptide)
peptide: Ac-[Nle]AH[dF]AAW-NH2
SMILES: CCCC[C@H](NC(C)=O)C(=O)N[C@@H](C)C(=O)N[C@@H](Cc1c[nH]cn1)C(=O)N[C@H](Cc1ccccc1)C(=O)N[C@@H](C)C(=O)N[C@@H](C)C(=O)N[C@@H](Cc1c[nH]c2ccccc12)C(N)=O
notes: synthetic linear peptide
For the molecule B11, in assay [12], the “MC-1 EC50 (average; cAMP HBL)” value came out at 4 nM. The Ki came to 43 nM in assay [1] and 10 µM in [2].

B12: Ac-Nle-Ala-Arg-D-Phe-Arg-Ala-Trp-NH2 (peptide)
peptide: Ac-[Nle]AR[dF]RAW-NH2
SMILES: CCCC[C@H](NC(C)=O)C(=O)N[C@@H](C)C(=O)N[C@@H](CCCNC(=N)N)C(=O)N[C@H](Cc1ccccc1)C(=O)N[C@@H](CCCNC(=N)N)C(=O)N[C@@H](C)C(=O)N[C@@H](Cc1c[nH]c2ccccc12)C(N)=O
notes: synthetic linear peptide
As to B12, the “MC-1 EC50 (average; cAMP HBL)” value in [13] is 0.04 nM. In addition, the results for the Ki in assay [1] and in assay [2] were 0.45 nM and 1.18 µM, respectively.

B13: Ac-Nle-Ala-His-D-Phe-Arg-Ala-Trp-OH (peptide)
peptide: Ac-[Nle]AH[dF]RAW-OH
SMILES: CCCC[C@H](NC(C)=O)C(=O)N[C@@H](C)C(=O)N[C@@H](Cc1c[nH]cn1)C(=O)N[C@H](Cc1ccccc1)C(=O)N[C@@H](CCCNC(=N)N)C(=O)N[C@@H](C)C(=O)N[C@@H](Cc1c[nH]c2ccccc12)C(=O)O
notes: synthetic linear peptide
For B13, the “MC-1 EC50 (average; cAMP HBL)” value in [14] came out at 0.4 nM. In addition, the Ki was 6 nM in assay [1] and 7.42 µM in assay [2].

B14: Ac-Nle-Ala-D-Phe-Arg-Ala-Trp-NH2 (peptide)
peptide: Ac-[Nle]A[dF]RAW-NH2
SMILES: CCCC[C@H](NC(C)=O)C(=O)N[C@@H](C)C(=O)N[C@H](Cc1ccccc1)C(=O)N[C@@H](CCCNC(=N)N)C(=O)N[C@@H](C)C(=O)N[C@@H](Cc1c[nH]c2ccccc12)C(N)=O
notes: synthetic linear peptide
On to B14, for which the Ki in assay [1] came to 6680 nM; in assay [2], 10 µM.

B15: Ac-Nle-Ala-His-D-Phe-Arg-D-Pro-D-Trp-NH2 (peptide)
peptide: Ac-[Nle]AH[dF]R[dP][dW]-NH2
SMILES: CCCC[C@H](NC(C)=O)C(=O)N[C@@H](C)C(=O)N[C@@H](Cc1c[nH]cn1)C(=O)N[C@H](Cc1ccccc1)C(=O)N[C@@H](CCCNC(=N)N)C(=O)N1CCC[C@@H]1C(=O)N[C@H](Cc1c[nH]c2ccccc12)C(N)=O
Turning to B15, the “MC-1 EC50 (average; cAMP HBL)” value in assay [15] was 2 nM.
